From paper PMC11031989, “Structural determinants for activation of the Tau kinase CDK5 by the serotonin receptor 5-HT7R” (Cell Communication and Signaling : CCS, 2024) come the findings set out here.

Experiment [1] concerns the target T1, mCherry-tagged CDK5 (cyclin-dependent kinase 5) (UniProt Q00535 1-292).
T1 construct: Cyclin-dependent kinase 5 (CDK5); Printed both as CDK5-mCherry and as mCherry-CDK5; also called CDK5-mCherry; mCherry-CDK5; source: N1E-115 cells, transfected, in lysate
Put plainly: co-IP; N1E-115 cells co-transfected with mCherry-tagged CDK5 and HA-tagged 5-HT7R constructs; IP with anti-mCherry antibody, Western blot with anti-HA antibody; ratio of co-precipitated receptor normalized to the WT sample; also done after knock-down of Gαs by shRNA (Additional file 5). Particulars: partners not purified.

Experiment [2] concerns the target T1, mCherry-tagged CDK5 (cyclin-dependent …). Briefly: cell-based or functional assay.

B1: HA-tagged 5-HT7R (serotonin receptor 7), wild type (receptor, UniProt P32304 1-448, looked up)
chain: MMDVNSSGRPDLYGHLRSLILPEVGRRLQDLSPDGGAHSVVSSWMPHLLSGFPEVTASPAPTWDAPPDNVSGCGEQINYGRVEKVVIGSILTLITLLTIAGNCLVVISVCFVKKLRQPSNYLIVSLALADLSVAVAVMPFVSVTDLIGGKWIFGHFFCNVFIAMDVMCCTASIMTLCVISIDRYLGITRPLTYPVRQNGKCMAKMILSVWLLSASITLPPLFGWAQNVNDDKVCLISQDFGYTIYSTAVAFYIPMSVMLFMYYQIYKAARKSAAKHKFSGFPRVQPESVISLNGVVKLQKEVEECANLSRLLKHERKNISIFKREQKAATTLGIIVGAFTVCWLPFFLLSTARPFICGTSCSCIPLWVERTCLWLGYANSLINPFIYAFFNRDLRTTYRSLLQCQYRNINRKLSAAGMHEALKLAERPERSEFVLQNCDHCGKKGHDT
notes: Serotonin receptor 7 (5-HT7R), wild type; pcDNA3.1(+) vector; also called 5-HT7R WT; WT; source: N1E-115 cells, transfected, in lysate; not shown: HA, N-terminal, kept
Take B1: in experiment [1], the “co-precipitated receptor, normalized to WT” value was 100%.

B2: HA-tagged 5-HT7R F281A (receptor, UniProt P32304 1-448, looked up)
chain: MMDVNSSGRPDLYGHLRSLILPEVGRRLQDLSPDGGAHSVVSSWMPHLLSGFPEVTASPAPTWDAPPDNVSGCGEQINYGRVEKVVIGSILTLITLLTIAGNCLVVISVCFVKKLRQPSNYLIVSLALADLSVAVAVMPFVSVTDLIGGKWIFGHFFCNVFIAMDVMCCTASIMTLCVISIDRYLGITRPLTYPVRQNGKCMAKMILSVWLLSASITLPPLFGWAQNVNDDKVCLISQDFGYTIYSTAVAFYIPMSVMLFMYYQIYKAARKSAAKHKFSGAPRVQPESVISLNGVVKLQKEVEECANLSRLLKHERKNISIFKREQKAATTLGIIVGAFTVCWLPFFLLSTARPFICGTSCSCIPLWVERTCLWLGYANSLINPFIYAFFNRDLRTTYRSLLQCQYRNINRKLSAAGMHEALKLAERPERSEFVLQNCDHCGKKGHDT
notes: Serotonin receptor 7 (5-HT7R) with F281A in intracellular loop 3; Primers are in Additional file 1; source: N1E-115 cells, transfected, in lysate; not shown: HA, N-terminal, kept
For the molecule B2, the “phosphorylation of endogenous CDK5 at S159 (read-out for CDK5 activation) in N1E-115 cells expressing the HA-tagged receptor, % of WT” value in experiment [2] is 45.7%. Besides, in experiment [1], the “co-precipitated receptor, normalized to WT” value came to 73.8%.

B3: HA-tagged 5-HT7R F278A;F281A (receptor, UniProt P32304 1-448, looked up)
chain: MMDVNSSGRPDLYGHLRSLILPEVGRRLQDLSPDGGAHSVVSSWMPHLLSGFPEVTASPAPTWDAPPDNVSGCGEQINYGRVEKVVIGSILTLITLLTIAGNCLVVISVCFVKKLRQPSNYLIVSLALADLSVAVAVMPFVSVTDLIGGKWIFGHFFCNVFIAMDVMCCTASIMTLCVISIDRYLGITRPLTYPVRQNGKCMAKMILSVWLLSASITLPPLFGWAQNVNDDKVCLISQDFGYTIYSTAVAFYIPMSVMLFMYYQIYKAARKSAAKHKASGAPRVQPESVISLNGVVKLQKEVEECANLSRLLKHERKNISIFKREQKAATTLGIIVGAFTVCWLPFFLLSTARPFICGTSCSCIPLWVERTCLWLGYANSLINPFIYAFFNRDLRTTYRSLLQCQYRNINRKLSAAGMHEALKLAERPERSEFVLQNCDHCGKKGHDT
notes: Serotonin receptor 7 (5-HT7R) with F278A and F281A in intracellular loop 3; Primers are in Additional file 1; also called F278;F281A; source: N1E-115 cells, transfected, in lysate; not shown: HA, N-terminal, kept
With B3, the “phosphorylation of endogenous CDK5 at S159 (read-out for CDK5 activation) in N1E-115 cells expressing the HA-tagged receptor, % of WT” value in experiment [2] was 49.2%. The “co-precipitated receptor, normalized to WT” value in experiment [1] is 64.5%.
